Consider two molecules from article PMC4580590.

Series [1] addresses D-lactate dehydrogenase from Sporolactobacillus inulinus CASD (DLDH744) (Sporolactobacillus inulinus CASD). Briefly: crystal structure; DLDH744 in complex with NAD+; molecular replacement, refined at 3.15 Å; homo-dimer in one asymmetric unit.
Substrate in series [2]: N[C@@H](CCC(=O)O)C(=O)O
Briefly: purified protein. Particulars: 100 mM PBS pH 5.5, 30°C, oxidative deamination, cofactor of the kinetic run not clearly told (0.2 mM NAD(P)+ in activity assay). It counts as biochemical, Sporolactobacillus inulinus.

Substrate in series [3]: O=C(O)C(=O)Cc1ccccc1
Description: purified protein. Particulars: 100 mM PBS pH 5.5, 30°C, 0.2 mM NADH or NADPH (which one not told). It counts as biochemical, Sporolactobacillus inulinus.

Substrate in series [4]: CC(=O)C(=O)O
Description: purified protein. The format is biochemical, Sporolactobacillus inulinus. The settings on record: 100 mM PBS pH 5.5, 30°C, 0.2 mM NADH or NADPH (which one not told).

On to “D-lactate dehydrogenase from Sporolactobacillus inulinus CASD (DLDH744) (enzyme)”, for which, in series [1], the stoichiometry N came to 2.

B1: DLDH744 (Sporolactobacillus inulinus CASD) (protein)
chain: MKIIMFSVRDDEEAAIREWEKKTGVQVDINRLELDAETAQLTKGYDGIVIQQRSHISNPAVYETLQKNGLRQLTSRTAGYDMIDLEQASERGLVVTNVPAYSPNSVAELALTQTMRLIRNLPLFDARGAEQDFRWAGLMAREIRSLTVGIIGAGRIGGTVARLFKALGATVIANDIVERVELKDIVTYVSKEELLQAADVVTLHVPLMDSTTQLIDADALALMKNDAVLINASRGPVVDTDALIAALQNKQIAGAALDTLNGEEHFFNQDLCGKELPSEQLKVLRTLPNVLITPHIGFYTNKAVQNMVEISLNDVLAILKTGTSEHQLNKVAVEN
notes: full length, 335 residues, homodimer; vector pET-28a(+), E. coli BL21(DE3); purified
B1: the Km in “purified protein [2]” turned out to be 5.7 ± 0.09 mM; in the series “purified protein [3]”, 3.32 ± 0.08 mM; in the series “purified protein [4]”, 3.4 ± 0.02 mM. The results for the kcat in “purified protein [2]” and in the series “purified protein [4]” were 0.372 ± 0.0017 s⁻¹ and 8.537 ± 0.127 s⁻¹, respectively.
